These are literature values, as cited in paper PMC12493190.

By Kd is commonly meant a measure of binding affinity in units of concentration.

Series [1] deals with phospho-ubiquitin (Homo sapiens) (UniProt P0CG47).
Series [2] addresses parkin pUbl Ubl (Homo sapiens) (UniProt O60260).

Sequence of parkin RING0 (O60260 141-225): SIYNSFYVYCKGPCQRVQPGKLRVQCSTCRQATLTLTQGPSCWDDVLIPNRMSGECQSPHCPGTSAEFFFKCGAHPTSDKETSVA
Sequence of parkin pUbl Ubl (Homo sapiens) (O60260 1-76): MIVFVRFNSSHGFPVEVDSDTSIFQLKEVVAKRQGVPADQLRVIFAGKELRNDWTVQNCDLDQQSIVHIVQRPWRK

As to parkin RING0 (from UniProt O60260), the Kd in series [1] is 400 nM; in series [2], 1000 nM.
